Assay [1] concerns the target casein.
The target of assay [2] is casein. The source holds these as a separate data set.

Read-outs that look alike come from different tables or passages of the source.

As for “purified S. trilobatum serine protease (StSP) (enzyme)”, the Km of casein proteolysis (substrate–velocity curve, UV absorbance at 280 nm, casein 7–80 µM, 37 °C, 50 mM Tris pH 7.8) is 14.1 µM/min with casein [1] and 14.6 µM in the assay with casein [2].

Source of the values: article PMC12101266.
